Measurements: publication PMC8363014, “OsMADS23 phosphorylated by SAPK9 confers drought and salt tolerance by regulating ABA biosynthesis in rice” (PLoS Genetics, 2021)

Target: T1, His-SAPK9 (rice, UniProt Q75V57 1-361)
T1 construct: SnRK2-type protein kinase SAPK9 from rice; source: E. coli DE3, pET-32a (+), purified
T1 sequence (looked up): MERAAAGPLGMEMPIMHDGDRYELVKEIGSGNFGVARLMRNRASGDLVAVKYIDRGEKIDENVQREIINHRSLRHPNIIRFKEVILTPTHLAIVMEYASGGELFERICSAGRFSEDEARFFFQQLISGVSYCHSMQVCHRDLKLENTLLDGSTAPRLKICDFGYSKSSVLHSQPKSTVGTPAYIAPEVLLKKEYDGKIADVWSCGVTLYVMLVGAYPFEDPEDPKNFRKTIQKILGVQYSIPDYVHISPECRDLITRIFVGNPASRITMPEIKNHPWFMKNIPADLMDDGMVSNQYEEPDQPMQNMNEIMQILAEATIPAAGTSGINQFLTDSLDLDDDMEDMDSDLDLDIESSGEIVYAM
Test: pull-down; 0.5 mg GST-OsMADS23 or GST on GST Bind Resin, 4°C, 2 h; then 0.5 mg purified His-SAPK9 for 2 h; three washes; western blot with anti-His
Conditions: both partners purified

binding result: binds
B1: GST-tagged OsMADS23 (natural protein)
chain: not shown
notes: MADS-box transcription factor OsMADS23 from rice; Printed as GST-OsMADS23; also called GST-OsMADS23; source: E. coli BL21 (DE3), pGEX-4T-1, purified
